Data published in article PMC4255253.

Biological target: human inducible heat shock protein 70 (hHsp70), full-length, non-tagged (human)
Test: BLI; biotinylated hHsp70 or DnaK immobilised on streptavidin biosensor tips, analyte in PBS (hHsp70 200-500 nM; hHsp40 20-50 nM; DnaK 200-500 nM), association 600 s, dissociation 600 s, 1:1 model

Sequence of human inducible heat shock protein 70 (hHsp70), full-length, non-tagged (human) (P0DMV8 whole entry E110D): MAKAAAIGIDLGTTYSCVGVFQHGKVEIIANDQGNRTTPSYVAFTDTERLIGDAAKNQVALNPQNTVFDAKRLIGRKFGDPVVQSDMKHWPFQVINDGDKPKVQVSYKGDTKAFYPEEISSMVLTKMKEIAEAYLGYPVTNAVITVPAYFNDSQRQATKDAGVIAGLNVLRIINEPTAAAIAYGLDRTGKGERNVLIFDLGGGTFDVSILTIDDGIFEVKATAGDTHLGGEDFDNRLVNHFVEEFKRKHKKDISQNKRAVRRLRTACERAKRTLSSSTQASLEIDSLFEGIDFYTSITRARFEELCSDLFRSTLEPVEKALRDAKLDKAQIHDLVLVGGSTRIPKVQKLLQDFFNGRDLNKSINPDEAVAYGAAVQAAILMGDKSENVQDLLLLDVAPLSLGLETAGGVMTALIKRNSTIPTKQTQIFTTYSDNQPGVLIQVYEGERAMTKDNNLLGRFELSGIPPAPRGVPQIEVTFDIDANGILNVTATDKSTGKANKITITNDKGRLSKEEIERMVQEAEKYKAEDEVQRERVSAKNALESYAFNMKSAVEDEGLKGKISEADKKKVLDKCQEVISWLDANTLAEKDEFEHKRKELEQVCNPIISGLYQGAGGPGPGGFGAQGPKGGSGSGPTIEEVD

Kd: 0.52 nM
Substance: human heat shock protein 40 (hHsp40) (from UniProt P25685 1-340) (natural protein)
